Assay [1] concerns the target human CD3 (CD3 epsilon of the T-cell receptor complex) on Jurkat cells (human) (UniProt P07766). The assay is described as follows: competition with 125I-UCHT1 tracer on Jurkat cells; competitor at 1 nM.
Assay [2] has the same target. The assay is described as follows: competition with 125I-UCHT1 tracer on Jurkat cells; competitor at 100 nM.

Among the data in patent US20040127682A1 are % of 125I-UCHT1 bound to cells values, retold here.

Sequence of UniProt P07766 (P07766 23-207, one chain of several): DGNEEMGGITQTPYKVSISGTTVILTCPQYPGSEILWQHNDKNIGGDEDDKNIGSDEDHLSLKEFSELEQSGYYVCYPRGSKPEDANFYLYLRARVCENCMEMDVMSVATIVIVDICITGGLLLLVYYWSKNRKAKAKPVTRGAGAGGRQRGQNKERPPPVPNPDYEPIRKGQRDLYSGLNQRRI

With scUCHT1, the figures for the % of 125I-UCHT1 bound to cells in assay [1] and in assay [2] were 80% and 0%, respectively.
